Experimental data taken from paper PMC3413117 (Nucleic Acids Research, 2012).

How the values were obtained:
LiBRCA2 = biological target: T1, LiBRCA2 (Leishmania infantum, UniProt A4HYJ9 1-1165); test: EMSA
T1 sequence: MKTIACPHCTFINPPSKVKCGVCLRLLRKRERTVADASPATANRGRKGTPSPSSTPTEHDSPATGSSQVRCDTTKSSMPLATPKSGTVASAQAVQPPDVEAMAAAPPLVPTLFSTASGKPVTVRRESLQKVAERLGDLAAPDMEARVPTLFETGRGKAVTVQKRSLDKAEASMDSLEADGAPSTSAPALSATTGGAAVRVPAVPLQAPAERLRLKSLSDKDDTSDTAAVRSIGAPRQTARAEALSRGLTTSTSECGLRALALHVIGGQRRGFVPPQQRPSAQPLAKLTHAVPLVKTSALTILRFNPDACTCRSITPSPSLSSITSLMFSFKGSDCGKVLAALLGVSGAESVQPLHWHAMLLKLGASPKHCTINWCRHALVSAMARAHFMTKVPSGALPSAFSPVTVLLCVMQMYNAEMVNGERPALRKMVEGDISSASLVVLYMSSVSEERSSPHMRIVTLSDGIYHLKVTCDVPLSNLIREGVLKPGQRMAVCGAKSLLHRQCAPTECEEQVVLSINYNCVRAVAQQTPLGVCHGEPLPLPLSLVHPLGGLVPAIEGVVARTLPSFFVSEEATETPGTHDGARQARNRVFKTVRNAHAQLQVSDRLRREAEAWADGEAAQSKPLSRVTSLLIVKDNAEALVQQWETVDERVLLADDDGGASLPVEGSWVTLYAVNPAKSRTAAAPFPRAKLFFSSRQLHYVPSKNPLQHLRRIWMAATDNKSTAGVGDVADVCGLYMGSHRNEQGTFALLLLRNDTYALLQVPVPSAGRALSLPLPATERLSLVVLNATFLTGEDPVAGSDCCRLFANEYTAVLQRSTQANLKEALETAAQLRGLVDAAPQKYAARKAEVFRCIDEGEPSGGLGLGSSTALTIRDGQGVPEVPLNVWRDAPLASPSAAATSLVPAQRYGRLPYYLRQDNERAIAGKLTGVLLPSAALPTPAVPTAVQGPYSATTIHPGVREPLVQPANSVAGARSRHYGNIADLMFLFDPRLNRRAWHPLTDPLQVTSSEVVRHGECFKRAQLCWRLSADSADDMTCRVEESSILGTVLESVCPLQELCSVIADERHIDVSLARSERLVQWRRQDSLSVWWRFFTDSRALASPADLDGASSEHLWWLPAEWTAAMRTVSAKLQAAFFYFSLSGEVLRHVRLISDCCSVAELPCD

LiBRCA2-B1 = biological target: T2, LiBRCA2-B1 (Leishmania infantum, UniProt A4HYJ9 1-122); test: EMSA
T2 sequence: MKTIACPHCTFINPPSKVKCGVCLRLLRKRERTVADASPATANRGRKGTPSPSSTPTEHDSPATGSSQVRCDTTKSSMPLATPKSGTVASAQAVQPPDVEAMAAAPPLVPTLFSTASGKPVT

SEC = biological target: the molecule itself; test: SEC

B1: 60-mer ssDNA (JYM925) (ssDNA)
DNA: GGGTGAACCTGCAGGTGGGCAAAGATGTCCTAGCAATGTAATCGTCAAGCTTTATGCCGT
binding result (LiBRCA2): binds
binding result (LiBRCA2-B1): no binding

B2: 60-mer dsDNA (JYM925/JYM945) (dsDNA)
DNA 1: B1 DNA
DNA 2: ACGGCATAAAGCTTGACGATTACATTGCTAGGACATCTTTGCCCACCTGCAGGTTCACCC
binding result (LiBRCA2): no binding

B3: Leishmania infantum RAD51, purified (GST tag cleaved) (natural protein)
chain: MQTRSKAKGRRGRPSARPSEEVEVVESQPQEALQNEEQEPRQQQQQSTDMAEPNASGFRVIQILENYGVASSDIKKLMECGFYTVESAAYAPKKAILAVKGISENKAEKIMAECAKLVPMGFTSAVAYHEARKEIIMVTTGSREVDKLLGGGIETGSITELFGEFRTGKTQLCHTLCVTCQLPISQGGAEGMALYIDTEGTFRPERLVAVAERYKLDPEDVLANVACARAFNTDHQQQLLLQASAMMAENRFALIVVDSATALYRTDYSGRNELAARQMHLGKFLRSLHNLAEEYGVAVVVTNQVVANVDGSAQMFQADSKKPIGGHIMAHASTTRLSLRKGRGEQRIIKVYDSPCLAEAEAIFGIYDDGVGDARD
binding result (SEC): binds

B4: Leishmania infantum BRCA2, purified LiBRCA2-His (GST tag cleaved) (natural protein)
chain: T1 sequence
binding result (SEC): binds
